# Data from paper PMC5510000, “RPA activates the XPF‐ERCC1 endonuclease to initiate processing of DNA interstrand crosslinks”.
# B1: simple fork (mixed)
# DNA 1: ATAAATATTTTTTATTAATAATAGATCACCTTTCTTTCTCTTCTCCCCTT
# DNA 2: TTCCCCTCCTCTCCTTCCTTCCTGATCTATTATTAATAAAAAATATTTAT
# B2: fork + lagging strand (mixed)
# DNA 1: B1 DNA 1
# DNA 2: B1 DNA 2
# ?: GGAAGGAAGGAGAGGAGGGGAA
# Target: RPA (full-length heterotrimer) (Homo sapiens, UniProt P27694;P15927;P35244 1-616;1-270;1-121)
# Assay: fluorescence anisotropy; 1 mM MnCl2; Fluorescence anisotropy: nuclease buffer (composition and pH not in the material) with 1 mM MnCl2, RPA mixed 1:1 with 10 nM fluorescein-labelled DNA, 30 ul, room temperature, 10 min; sigmoidal fit
# Conditions: protein: recombinant, copies: 1;1;1
# Sequence of RPA (full-length heterotrimer) (P27694 whole entry, chain 1 of 3): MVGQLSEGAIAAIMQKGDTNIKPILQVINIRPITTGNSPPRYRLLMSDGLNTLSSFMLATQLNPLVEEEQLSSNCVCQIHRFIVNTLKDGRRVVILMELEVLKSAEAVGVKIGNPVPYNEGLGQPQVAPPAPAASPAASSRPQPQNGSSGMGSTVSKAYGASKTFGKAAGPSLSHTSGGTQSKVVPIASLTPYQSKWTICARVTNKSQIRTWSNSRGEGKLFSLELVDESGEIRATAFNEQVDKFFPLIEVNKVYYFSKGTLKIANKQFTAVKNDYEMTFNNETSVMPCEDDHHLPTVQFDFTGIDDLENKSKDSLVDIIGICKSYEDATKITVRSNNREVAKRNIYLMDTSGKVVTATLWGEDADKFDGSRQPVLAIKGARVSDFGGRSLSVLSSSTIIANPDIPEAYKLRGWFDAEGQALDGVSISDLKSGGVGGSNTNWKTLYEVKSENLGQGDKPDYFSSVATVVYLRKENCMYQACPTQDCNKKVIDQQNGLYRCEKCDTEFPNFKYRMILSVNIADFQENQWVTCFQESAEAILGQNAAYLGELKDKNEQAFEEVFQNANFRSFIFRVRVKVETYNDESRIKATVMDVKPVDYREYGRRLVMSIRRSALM
# Sequence of RPA (full-length heterotrimer) (P15927 whole entry, chain 2 of 3): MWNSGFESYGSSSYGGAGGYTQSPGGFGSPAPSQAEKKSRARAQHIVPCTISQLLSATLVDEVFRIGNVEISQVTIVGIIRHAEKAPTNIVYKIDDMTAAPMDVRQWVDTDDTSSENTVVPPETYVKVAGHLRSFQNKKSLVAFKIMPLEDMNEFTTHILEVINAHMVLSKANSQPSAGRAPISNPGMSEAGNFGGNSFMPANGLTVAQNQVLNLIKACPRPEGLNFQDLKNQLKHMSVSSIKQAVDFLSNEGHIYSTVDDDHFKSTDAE
# Sequence of RPA (full-length heterotrimer) (P35244 whole entry, chain 3 of 3): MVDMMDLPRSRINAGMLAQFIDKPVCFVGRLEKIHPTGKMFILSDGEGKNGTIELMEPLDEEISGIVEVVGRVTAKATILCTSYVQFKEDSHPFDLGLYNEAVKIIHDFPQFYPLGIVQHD
Binder,"Kd (fork: 28 bp duplex, 22 nt 3' arm (strand 1) and 22 nt 5' arm (strand 2)) [nM]","Kd (fork 1:2 2:3, 28 bp parental duplex, 22 bp lagging arm, 22 nt 3'-ssDNA arm on strand 1) [nM]"
B1,6.3,
B2,,6.2
